According to the MegaScale stability set (Tsuboyama et al. 2023):

B1: 5KPH (parent)
chain: EEKRQVKQVAKEKLLEQSPNSKVQVRRVQKQGNTIRVELELRTNGKKENYTVEVERQGNTWTVKRITRT

Variants of: B1
Assay: folding stability dG (cDNA display proteolysis); higher = more stable
Conditions: PBS, room temperature

Variant	folding stability dG [kcal/mol]
EEKRQVKQVAKEKLLEQSPNSKVQVRRVQKQGNTARVELELRTNGKKENYTVEVERQGNTWTVKRITRT [I35A]	3.73
EEKRQVKQVAKEKLLEQSPNSKVQVRRVQKQPNTIRVELELRTNGKKENYTVEVERQGNTWTVKRITRT [G32P]	2.45
EEKRQVKQVAKEKLLEQSPNSKVQVRRVQKQSNTIRVELELRTNGKKENYTVEVERQGNTWTVKRITRT [G32S]	2.97
EEKRQVKQVAKEKLLEQSPNSKVQVRRVQKQRNTIRVELELRTNGKKENYTVEVERQGNTWTVKRITRT [G32R]	3.03
EEKRQVKQVAKEKLLEQSPNSKVQVRRVQKQMNTIRVELELRTNGKKENYTVEVERQGNTWTVKRITRT [G32M]	2.99
EEKRQVKQVAKEKLLEQSPNSKVQVRRVQKQCNTIRVELELRTNGKKENYTVEVERQGNTWTVKRITRT [G32C]	3.07
EEKRQVKQVAKEKLLEQSPNSKVQVRRVQKQINTIRVELELRTNGKKENYTVEVERQGNTWTVKRITRT [G32I]	2.67
EEKRQVKQVAKEKLLEQSPNSKVQVRRVQKQKNTIRVELELRTNGKKENYTVEVERQGNTWTVKRITRT [G32K]	3.11
EEKRQVKQVAKEKLLEQSPNSKVQVRRVQKQYNTIRVELELRTNGKKENYTVEVERQGNTWTVKRITRT [G32Y]	3.13
EEKRQVKQVAKEKLLEQSPNSKVQVRRVQKQANTIRVELELRTNGKKENYTVEVERQGNTWTVKRITRT [G32A]	3.18
EEKRQVKQVAKEKLLEQSPNSKVQVRRVQKQENTIRVELELRTNGKKENYTVEVERQGNTWTVKRITRT [G32E]	3.1
EEKRQVKQVAKEKLLEQSPNSKVQVRRVQKQWNTIRVELELRTNGKKENYTVEVERQGNTWTVKRITRT [G32W]	3.21
EEKRQVKQVAKEKLLEQSPNSKVQVRRVQKQQNTIRVELELRTNGKKENYTVEVERQGNTWTVKRITRT [G32Q]	3.04
EEKRQVKQVAKEKLLEQSPNSKVQVRRVQKQDNTIRVELELRTNGKKENYTVEVERQGNTWTVKRITRT [G32D]	3.3
EEKRQVKQVAKEKLLEQSPNSKVQVRRVQKQVNTIRVELELRTNGKKENYTVEVERQGNTWTVKRITRT [G32V]	2.74
EEKRQVKQVAKEKLLEQSPNSKVQVRRVQKQFNTIRVELELRTNGKKENYTVEVERQGNTWTVKRITRT [G32F]	3.33
EEKRQVKQVAKEKLLEQSPNSKVQVRRVQKQHNTIRVELELRTNGKKENYTVEVERQGNTWTVKRITRT [G32H]	3.14
EEKRQVKQVAKEKLLEQSPNSKVQVRRVQKQLNTIRVELELRTNGKKENYTVEVERQGNTWTVKRITRT [G32L]	3.09
EEKRQVKQVAKEKLLEQSPNSKVQVRRVQKQTNTIRVELELRTNGKKENYTVEVERQGNTWTVKRITRT [G32T]	2.6
EEKRQVKQVAKEKLLEQSPNSKVQVRRVQKQNNTIRVELELRTNGKKENYTVEVERQGNTWTVKRITRT [G32N]	3.26

Variant	folding stability dG [kcal/mol]
EEKRQVKQVAKEKLLEQSPNSKVQVRRVQKQGNLIRVELELRTNGKKENYTVEVERQGNTWTVKRITRT [T34L]	3.96
EEKRQVKQVAKEKLLEQSPNSKVQVRRVQKQGNPIRVELELRTNGKKENYTVEVERQGNTWTVKRITRT [T34P]	2.41
EEKRQVKQVAKEKLLEQSPNSKVQVRRVQKQGNVIRVELELRTNGKKENYTVEVERQGNTWTVKRITRT [T34V]	4.08
EEKRQVKQVAKEKLLEQSPNSKVQVRRVQKQGNDIRVELELRTNGKKENYTVEVERQGNTWTVKRITRT [T34D]	2.93
EEKRQVKQVAKEKLLEQSPNSKVQVRRVQKQGNFIRVELELRTNGKKENYTVEVERQGNTWTVKRITRT [T34F]	3.81
EEKRQVKQVAKEKLLEQSPNSKVQVRRVQKQGNKIRVELELRTNGKKENYTVEVERQGNTWTVKRITRT [T34K]	3.4
EEKRQVKQVAKEKLLEQSPNSKVQVRRVQKQGNEIRVELELRTNGKKENYTVEVERQGNTWTVKRITRT [T34E]	2.99
EEKRQVKQVAKEKLLEQSPNSKVQVRRVQKQGNAIRVELELRTNGKKENYTVEVERQGNTWTVKRITRT [T34A]	3.62
EEKRQVKQVAKEKLLEQSPNSKVQVRRVQKQGNGIRVELELRTNGKKENYTVEVERQGNTWTVKRITRT [T34G]	3.44
EEKRQVKQVAKEKLLEQSPNSKVQVRRVQKQGNNIRVELELRTNGKKENYTVEVERQGNTWTVKRITRT [T34N]	3.44
EEKRQVKQVAKEKLLEQSPNSKVQVRRVQKQGNIIRVELELRTNGKKENYTVEVERQGNTWTVKRITRT [T34I]	3.97
EEKRQVKQVAKEKLLEQSPNSKVQVRRVQKQGNWIRVELELRTNGKKENYTVEVERQGNTWTVKRITRT [T34W]	3.65
EEKRQVKQVAKEKLLEQSPNSKVQVRRVQKQGNYIRVELELRTNGKKENYTVEVERQGNTWTVKRITRT [T34Y]	3.92
EEKRQVKQVAKEKLLEQSPNSKVQVRRVQKQGNHIRVELELRTNGKKENYTVEVERQGNTWTVKRITRT [T34H]	3.57
EEKRQVKQVAKEKLLEQSPNSKVQVRRVQKQGNSIRVELELRTNGKKENYTVEVERQGNTWTVKRITRT [T34S]	3.59
EEKRQVKQVAKEKLLEQSPNSKVQVRRVQKQGNQIRVELELRTNGKKENYTVEVERQGNTWTVKRITRT [T34Q]	3.38
EEKRQVKQVAKEKLLEQSPNSKVQVRRVQKQGNRIRVELELRTNGKKENYTVEVERQGNTWTVKRITRT [T34R]	3.63
EEKRQVKQVAKEKLLEQSPNSKVQVRRVQKQGNMIRVELELRTNGKKENYTVEVERQGNTWTVKRITRT [T34M]	3.85
EEKRQVKQVAKEKLLEQSPNSKVQVRRVQKQGNCIRVELELRTNGKKENYTVEVERQGNTWTVKRITRT [T34C]	3.48
